We go through three substances from PMC9666535.

In data set [1] the target is PCNA (Homo sapiens) (UniProt P12004). Particulars: cited from earlier work.
Data set [2] deals with PCNA WT (UniProt P12004). Put plainly: single-molecule FRET of DNA bending (TIRF); internally labeled double flap DNA on the surface, PCNA pre-loaded by RFC and trapped on it (Sub#12) or absent (Sub#13); Polδ Exo^− 250 nM in solution; 50 ms resolution; 50 mM HEPES-KOH pH 7.5, 100 mM KCl, 10 mM MgCl2. Particulars: other: single-molecule FRET of DNA bending (TIRF).
PCNA WT, sequence (P12004 whole entry): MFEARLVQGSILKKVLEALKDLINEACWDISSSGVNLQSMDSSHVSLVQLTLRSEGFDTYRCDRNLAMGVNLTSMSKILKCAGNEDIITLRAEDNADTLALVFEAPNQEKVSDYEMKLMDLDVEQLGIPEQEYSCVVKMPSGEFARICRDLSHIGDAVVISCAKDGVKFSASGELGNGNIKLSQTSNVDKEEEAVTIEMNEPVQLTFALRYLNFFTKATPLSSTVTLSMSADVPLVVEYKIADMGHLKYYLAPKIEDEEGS
Data set [3] deals with FEN1 D181A•PCNA complex prebound on the nick product (FEN1•PCNA•NP) (human) (UniProt P39748). Put plainly: other fluorescence titration; apparent; FeSQ quenching of Cy3 on the DNA: FEN1 D181A (250 nM) prebound to PCNA-loaded nick DNA (Sub#28), Polδ titrated; quadratic fit (Eq. 1); 22 °C, 50 mM HEPES-KOH pH 7.5, 100 mM KCl, 10 mM MgCl2, 1 mM ATP.
FEN1 D181A•PCNA complex prebound on the nick product (FEN1•PCNA•NP) (human), sequence (P39748 2-380 D181A, chain 1 of 2): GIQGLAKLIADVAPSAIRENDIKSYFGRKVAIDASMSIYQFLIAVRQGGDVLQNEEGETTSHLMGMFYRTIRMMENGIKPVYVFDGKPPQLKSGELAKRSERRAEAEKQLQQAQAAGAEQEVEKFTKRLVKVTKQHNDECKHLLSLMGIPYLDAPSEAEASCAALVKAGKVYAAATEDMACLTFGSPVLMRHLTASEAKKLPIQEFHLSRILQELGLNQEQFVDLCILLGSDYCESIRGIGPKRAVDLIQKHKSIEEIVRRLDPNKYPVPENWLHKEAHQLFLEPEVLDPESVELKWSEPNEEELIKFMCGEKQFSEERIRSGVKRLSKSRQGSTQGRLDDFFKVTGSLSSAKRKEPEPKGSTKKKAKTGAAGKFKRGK
FEN1 D181A•PCNA complex prebound on the nick product (FEN1•PCNA•NP) (human), sequence (P12004 whole entry, chain 2 of 2, further chain): as the sequence (P12004 whole entry) above

FEN1, sequence (P39748 whole entry): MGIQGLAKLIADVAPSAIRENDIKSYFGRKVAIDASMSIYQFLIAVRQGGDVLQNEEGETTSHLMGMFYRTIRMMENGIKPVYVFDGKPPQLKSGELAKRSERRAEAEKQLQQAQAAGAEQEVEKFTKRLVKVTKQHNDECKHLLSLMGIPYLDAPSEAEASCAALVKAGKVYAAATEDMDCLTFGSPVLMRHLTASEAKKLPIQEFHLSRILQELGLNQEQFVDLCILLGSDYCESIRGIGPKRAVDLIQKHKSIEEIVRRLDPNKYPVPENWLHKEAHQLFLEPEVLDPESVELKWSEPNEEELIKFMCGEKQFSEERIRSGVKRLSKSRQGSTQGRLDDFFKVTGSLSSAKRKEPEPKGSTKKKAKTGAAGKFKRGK
PCNA (Homo sapiens), sequence (P12004 whole entry): as the sequence (P12004 whole entry) above

Regarding FEN1 (from UniProt P39748), the Kd in data set [1] is 70 nM.

On to Polδ Exo^− (D515V in p125), for which the “assembly yield of the Polδ•PCNA complex” value in data set [2] was “the assembly yield was only ~70%”.

Regarding “Polδ Exo^− (D515V in p125) (from UniProt P28340 1-1107; Q9HCU8 1-107) (complex)”, the Kd in data set [3] came out at 4.5 nM.
